The assay concerns the target HLA-B*0702 class I heavy chain (free heavy chain, C1R transfectant B7C1R) (human). Kind of assay: nonreducing SDS-PAGE of immunoprecipitates.

Drawing on PMC2191818, this text covers stoichiometry N for one substance.

Consider “HLA-B*0702 class I heavy chain (free heavy chain, C1R transfectant B7C1R) (natural protein)”, for which the stoichiometry N (as a rule, a count of units in the complex or per binding partner) stood at 2.
